Experimental findings from PMC5054401 are described below.

The nature of data set [1]: anti-Flag immunofluorescence, nucleus/cytoplasm densitometry. The note with it: glycan lost.
Data set [2] in a line: HeLa subcellular fractionation, anti-Flag western.
A short description of data set [3]: OGT enzyme activity (Supplementary Fig. 5a,b). The note with it: glycan lost; control: WT-OGT.

B1: O-GlcNAc transferase (OGT): Mono-OGT S389A (protein)
parent chain: MASSVGNVADSTGLAELAHREYQAGDFEAAERHCMQLWRQEPDNTGVLLLLSSIHFQCRRLDRSAHFSTLAIKQNPLLAEAYSNLGNVYKERGQLQEAIEHYRHALRLKPDFIDGYINLAAALVAAGDMEGAVQAYVSALQYNPDLYCVRSDLGNLLKALGRLEEAKACYLKAIETQPNFAVAWSNLGCVFNAQGEIWLAIHHFEKAVTLDPNFLDAYINLGNVLKEARIFDRAVAAYLRALSLSPNHAVVHGNLACVYYEQGLIDLAIDTYRRAIELQPHFPDAYCNLANALKEKGSVAEAEDCYNTALRLCPTHADSLNNLANIKREQGNIEEAVRLYRKALEVFPEFAAAHSNLASVLQQQGKLQEALMHYKEAIRISPTFADAYSNMGNTLKEMQDVQGALQCYTRAIQINPAFADAHSNLASIHKDSGNIPEAIASYRTALKLKPDFPDAYCNLAHCLQIVCDWTDYDERMKKLVSIVADQLEKNRLPSVHPHHSMLYPLSHGFRKAIAERHGNLCLDKINVLHKPPYEHPKDLKLSDGRLRVGYVSSDFGNHPTSHLMQSIPGMHNPDKFEVFCYALSPDDGTNFRVKVMAEANHFIDLSQIPCNGKAADRIHQDGIHILVNMNGYTKGARNELFALRPAPIQAMWLGYPGTSGALFMDYIITDQETSPAEVAEQYSEKLAYMPHTFFIGDHANMFPHLKKKAVIDFKSNGHIYDNRIVLNGIDLKAFLDSLPDVKIVKMKCPDGGDNADSSNTALNMPVIPMNTIAEAVIEMINRGQIQITINGFSISNGLATTQINNKAATGEEVPRTIIVTTRSQYGLPEDAIVYCNFNQLYKIDPSTLQMWANILKRVPNSVLWLLRFPAVGEPNIQQYAQNMGLPQNRIIFSPVAPKEEHVRRGQLADVCLDTPLCNGHTTGMDVLWAGTPMVTMPGETLASRVAASQLTCLGCLELIAKNRQEYEDIAVKLGTDLEYLKKVRGKVWKQRISSPLFNTKQYTMELERLYLQMWEHYAAGNKPDHMIKPVEVTESA
As for B1, the localisation_or_trafficking entry in data set [1] (control: Mono-OGT) was “decreases”; in data set [2] (glycan lost, control: Mono-OGT), “decreases”.

B2: O-GlcNAc transferase (OGT): 5-thio-GlcNAc (protein)
parent chain: B1 parent chain
Consider B2, for which the localisation_or_trafficking result in data set [1] (control: untreated cells) is reported as “decreases”; in data set [2] (glycan lost, control: untreated cells) it was “decreases”.

B3: O-GlcNAc transferase (OGT): Thiamet-G (protein)
parent chain: B1 parent chain
As for B3, in data set [2] (glycan gained, control: untreated cells), the localisation_or_trafficking entry was “increases”.

B4: O-GlcNAc transferase (OGT): OGT S389A (protein)
parent chain: B1 parent chain
As to B4, the enzymatic_activity result in data set [3] is on record as “no change”.
